Experimental data: patent US20200283537A1 (UNIVERSITY OF VIRGINIA PATENT FOUNDATION, published 2020)

B1: BaCa-1 (Bispecific-Anchored Cytotoxicity-Activator-1; farletuzumab IgG1 with a lexatumumab scFv at the C-terminus of the heavy chain) (bispecific antibody)
heavy: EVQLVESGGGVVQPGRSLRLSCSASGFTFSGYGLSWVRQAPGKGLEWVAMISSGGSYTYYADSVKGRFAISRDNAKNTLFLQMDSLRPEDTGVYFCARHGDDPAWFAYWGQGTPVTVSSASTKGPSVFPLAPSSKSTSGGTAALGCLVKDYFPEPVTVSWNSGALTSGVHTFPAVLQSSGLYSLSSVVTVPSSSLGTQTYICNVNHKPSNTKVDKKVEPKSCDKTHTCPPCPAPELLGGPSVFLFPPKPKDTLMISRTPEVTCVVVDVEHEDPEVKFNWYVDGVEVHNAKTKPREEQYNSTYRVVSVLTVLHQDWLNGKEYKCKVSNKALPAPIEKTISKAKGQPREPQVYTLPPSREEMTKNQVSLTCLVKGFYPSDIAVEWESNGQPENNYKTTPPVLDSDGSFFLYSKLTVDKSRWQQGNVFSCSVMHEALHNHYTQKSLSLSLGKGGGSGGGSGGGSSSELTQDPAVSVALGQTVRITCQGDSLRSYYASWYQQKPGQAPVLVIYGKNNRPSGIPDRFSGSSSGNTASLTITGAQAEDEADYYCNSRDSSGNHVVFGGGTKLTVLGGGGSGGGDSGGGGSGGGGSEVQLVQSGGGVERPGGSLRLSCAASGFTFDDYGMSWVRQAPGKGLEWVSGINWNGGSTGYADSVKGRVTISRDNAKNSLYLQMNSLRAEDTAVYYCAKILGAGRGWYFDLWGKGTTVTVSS
light: DIQLTQSPSSLSASVGDRVTITCSVSSSISSNNLHWYQQKPGKAPKPWIYGTSNLASGVPSRFSGSGSGTDYTFTISSLQPEDIATYYCQQWSSYPYMYTFGQGTKVEIKRTVAAPSVFIFPPSDEQLKSGTASVVCLLNNFYPREAKVQWKVDNALQSGNSQESVTEQDSKDSTYSLSSTLTLSKADYEKHKVYACEVTHQGLSSPVTKSFNRGEC
B2: BaCa antibody labelled with IRDye 800CW (bispecific antibody, human IgG1, kappa)
heavy: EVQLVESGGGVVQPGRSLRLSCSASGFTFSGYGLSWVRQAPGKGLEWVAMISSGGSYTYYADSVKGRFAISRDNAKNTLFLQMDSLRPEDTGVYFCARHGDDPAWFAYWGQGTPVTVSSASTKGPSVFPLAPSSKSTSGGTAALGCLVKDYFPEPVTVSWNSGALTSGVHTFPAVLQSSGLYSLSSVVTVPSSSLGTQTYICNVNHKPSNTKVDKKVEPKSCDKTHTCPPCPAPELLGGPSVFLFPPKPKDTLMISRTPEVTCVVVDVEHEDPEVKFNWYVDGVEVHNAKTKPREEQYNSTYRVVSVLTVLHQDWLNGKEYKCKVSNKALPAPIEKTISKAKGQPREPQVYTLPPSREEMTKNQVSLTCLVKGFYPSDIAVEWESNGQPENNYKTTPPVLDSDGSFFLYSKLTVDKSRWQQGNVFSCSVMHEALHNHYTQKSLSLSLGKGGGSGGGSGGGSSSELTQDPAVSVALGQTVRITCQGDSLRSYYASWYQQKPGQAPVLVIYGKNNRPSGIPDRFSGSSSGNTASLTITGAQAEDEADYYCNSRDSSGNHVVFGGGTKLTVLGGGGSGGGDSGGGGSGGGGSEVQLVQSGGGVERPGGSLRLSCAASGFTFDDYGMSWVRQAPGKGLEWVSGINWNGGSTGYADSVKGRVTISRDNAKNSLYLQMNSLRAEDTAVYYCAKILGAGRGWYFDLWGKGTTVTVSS
light: B1 light
modifications: IRDye 800CW NHS Ester label; sites not stated; IRDye 800CW NHS Ester label (0.04 mg dye per 1 mg of antibodies); sites not stated
notes: Lead BaCa (BaCa-1/HuBaCa), dye-conjugated; also called BaCa-IR800; IR800 labeled BaCa

How the values were obtained:
[1] = target: Human folate receptor alpha-1 (FOLR1) on ovarian cancer cells (human, UniProt P15328 25-234); test: cell-based or functional assay
Sequence of Human folate receptor alpha-1 (FOLR1) on ovarian cancer cells (P15328 25-234): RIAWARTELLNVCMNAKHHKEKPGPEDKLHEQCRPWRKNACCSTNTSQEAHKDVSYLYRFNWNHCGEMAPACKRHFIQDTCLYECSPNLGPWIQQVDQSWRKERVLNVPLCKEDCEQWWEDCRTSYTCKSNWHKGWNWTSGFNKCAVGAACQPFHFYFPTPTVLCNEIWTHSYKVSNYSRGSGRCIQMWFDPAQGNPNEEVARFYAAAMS

[2] = target: Human death receptor 5 (DR5/TRAIL-R2) on cancer cells (human, UniProt O14763 56-440); test: cell-based or functional assay
[3] = target: T1, Recombinant DR5 (rDR5), extracellular domain of DR5/TRAIL-R2 fused to IgG4-Fc; test: ELISA on coated rDR5-IgG4-Fc (FIG. 12D)
T1 construct: It was biotinylated for BLI; also called rDR5-IgG4; DR5-Fc
Procedure: (D) IgG4-Fc tagged rDR5 receptor was coated in 96 well plates overnight.
Binding specificity and affinity of various described IgG1 subclasses were determined by ELISA using the recombinant extracellular domain of FOLR1 and/or DR5/TRAIL-R2. For coating 96-well ELISA plates (Olympus), the protein solutions (2 μg/ml) were prepared in coating buffer (100 mM Sodium Bicarbonate pH 9.2) and 100 μl was distributed in each well. The plates were then incubated overnight at 4° C. Next day, the unbound areas were blocked by cell culture media containing 10% FBS, 1% BSA and 0.5% sodium azide for 2 hr at room temperature. […] After washing with PBS solution containing 0.1% Tween20, the plates were incubated for 1 hr with horseradish peroxidase (HRP) conjugated anti-human IgG1 (Thermo Scientific, A10648). Detection was performed using a two-component peroxidase substrate kit (BD biosciences) and the reaction was stopped with the addition of 2 N Sulfuric acid. Absorbance at 450 nm was immediately recorded using a Synergy Spectrophotometer (BioTech), and background absorbance from negative control samples was subtracted. The antibody affinities (Kd) were calculated by non-linear regression analysis using GraphPad Prism software.

Row | Binder | cell killing, OVCAR-4 (high FOLR1) over Colo-205 (low FOLR1) cells [1] [fold] | IC50 of cell viability, Colo-205 cells [2] [nM] | binding result [3]
1 | B1 | ~70 | 3.07 | 
2 | B2 |  |  | binds
